Results reported in the supplement of paper PMC9876800.

System: peptide library, one residue held at a place counted from the S/T acceptor
Assay: relative phosphorylation of the sub-library (ratio to the mean residue at this position); higher = residue favoured
Conditions: human
Method in brief: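 Each biotinylated degenerate peptide sub-library fixed one residue at one position around a central Ser/Thr and was incubated with a purified recombinant kinase, a human or orthologue construct, in 384-well plates. The 90 min reactions, under kinase-specific conditions, contained 50 μM peptide and 50 μM ATP spiked with γ-32P-ATP. Phosphorylation was read by phosphorimaging spots on streptavidin membranes and quantifying them by densitometry. Relative sub-library phosphorylation expresses each value as a ratio to the mean residue at that position.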

BRAF, construct: aa444-721, sequence (P15056 444-721, looked up): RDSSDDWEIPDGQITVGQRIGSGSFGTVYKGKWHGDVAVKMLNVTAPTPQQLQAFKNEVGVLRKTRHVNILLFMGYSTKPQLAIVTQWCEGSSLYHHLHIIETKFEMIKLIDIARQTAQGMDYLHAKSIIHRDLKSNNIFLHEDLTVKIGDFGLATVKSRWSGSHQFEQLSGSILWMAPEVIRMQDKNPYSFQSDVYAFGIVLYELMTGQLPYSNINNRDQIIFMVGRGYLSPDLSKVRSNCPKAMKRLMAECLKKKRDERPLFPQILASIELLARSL
AKT3, construct: aa106-end, sequence (Q9Y243 106-479, looked up): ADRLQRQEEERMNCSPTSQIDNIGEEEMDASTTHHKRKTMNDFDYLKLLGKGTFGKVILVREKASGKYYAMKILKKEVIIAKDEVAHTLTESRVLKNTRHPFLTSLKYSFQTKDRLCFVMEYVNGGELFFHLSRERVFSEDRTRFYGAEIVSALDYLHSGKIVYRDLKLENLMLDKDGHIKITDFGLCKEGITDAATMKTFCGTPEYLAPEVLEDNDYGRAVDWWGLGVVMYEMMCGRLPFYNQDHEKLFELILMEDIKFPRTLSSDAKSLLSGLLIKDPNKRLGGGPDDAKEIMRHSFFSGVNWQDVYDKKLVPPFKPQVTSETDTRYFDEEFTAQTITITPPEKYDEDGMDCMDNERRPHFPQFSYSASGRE
AKT2, construct: Full length, sequence (P31751 whole entry, looked up): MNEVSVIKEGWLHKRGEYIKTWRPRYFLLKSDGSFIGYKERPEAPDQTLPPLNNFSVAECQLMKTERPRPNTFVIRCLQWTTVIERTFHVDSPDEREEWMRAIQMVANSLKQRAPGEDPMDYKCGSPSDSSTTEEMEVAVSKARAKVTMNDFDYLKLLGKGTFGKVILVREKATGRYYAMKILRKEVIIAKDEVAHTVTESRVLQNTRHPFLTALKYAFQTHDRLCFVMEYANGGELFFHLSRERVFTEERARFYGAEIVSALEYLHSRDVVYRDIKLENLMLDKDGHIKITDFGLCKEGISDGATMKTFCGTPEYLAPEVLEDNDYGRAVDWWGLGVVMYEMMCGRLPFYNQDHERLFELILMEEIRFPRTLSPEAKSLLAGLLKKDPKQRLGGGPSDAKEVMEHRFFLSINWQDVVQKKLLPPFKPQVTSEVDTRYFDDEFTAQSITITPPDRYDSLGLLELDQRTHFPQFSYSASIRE

AKT2, construct: Full length (from UniProt P31751)
relative phosphorylation
Conditions | at +1 | at +2 | at +3 | at +4 | at -1 | at -2 | at -3 | at -4 | at -5
A fixed | 0.789 | 1.29 | 1.06 | 0.923 | 0.951 | 0.988 | 0.523 | 1.15 | 1.09
D fixed | 0.487 | 0.644 | 0.589 | 0.615 | 0.663 | 0.303 | 0.213 | 0.571 | 0.519
E fixed | 0.448 | 0.575 | 0.584 | 0.595 | 0.457 | 0.304 | 0.231 | 0.647 | 0.536
F fixed | 1.78 | 0.673 | 0.86 | 0.681 | 0.795 | 0.446 | 0.288 | 0.7 | 0.931
G fixed | 0.854 | 1.36 | 1.27 | 1.23 | 1.16 | 0.615 | 0.351 | 1.19 | 1.05
H fixed | 0.947 | 1.76 | 1.39 | 1.15 | 1.28 | 0.822 | 0.546 | 1.03 | 1.04
I fixed | 1.14 | 0.734 | 0.617 | 0.687 | 0.43 | 0.438 | 0.274 | 0.661 | 0.711
K fixed | 1.02 | 1.33 | 1.79 | 1.96 | 1.36 | 2.83 | 1.91 | 1.98 | 1.67
L fixed | 1.11 | 0.872 | 0.859 | 0.736 | 0.772 | 0.784 | 0.29 | 0.797 | 0.838
M fixed | 1.35 | 0.8 | 0.735 | 0.814 | 0.984 | 0.488 | 0.291 | 0.888 | 0.872
N fixed | 1.1 | 1.23 | 0.919 | 1.06 | 1.67 | 0.547 | 0.304 | 0.914 | 0.807
P fixed | 0.722 | 0.925 | 1.02 | 1.64 | 1.12 | 0.385 | 0.34 | 0.972 | 1.02
Q fixed | 1.19 | 0.881 | 0.964 | 1.11 | 1.12 | 0.657 | 0.48 | 0.986 | 0.841
R fixed | 1.12 | 1.41 | 1.82 | 1.68 | 1.61 | 6.03 | 10.1 | 2.35 | 2.51
V fixed | 1.01 | 0.92 | 0.743 | 0.64 | 0.523 | 0.486 | 0.275 | 0.701 | 0.736
W fixed | 0.972 | 0.723 | 0.888 | 0.705 | 0.737 | 0.437 | 0.294 | 0.674 | 0.907
Y fixed | 0.971 | 0.878 | 0.887 | 0.765 | 1.38 | 0.441 | 0.311 | 0.803 | 0.927
pThr fixed | 0.772 | 1.1 | 0.808 | 0.932 | 0.441 | 0.482 | 0.346 | 0.752 | 0.776
pTyr fixed | 0.884 | 1.13 | 1.01 | 0.71 | 0.83 | 0.425 | 0.32 | 0.641 | 0.809

AKT3, construct: aa106-end (from UniProt Q9Y243)
relative phosphorylation
Conditions | at +1 | at +2 | at +3 | at +4 | at -1 | at -2 | at -3 | at -4 | at -5
A fixed | 0.69 | 1.13 | 0.867 | 0.755 | 0.872 | 0.914 | 0.532 | 1.12 | 1.27
D fixed | 0.38 | 0.56 | 0.496 | 0.586 | 0.669 | 0.149 | 0.13 | 0.491 | 0.464
E fixed | 0.326 | 0.385 | 0.465 | 0.496 | 0.35 | 0.142 | 0.138 | 0.558 | 0.437
F fixed | 2.25 | 0.596 | 0.824 | 0.604 | 0.783 | 0.32 | 0.168 | 0.611 | 0.672
G fixed | 0.775 | 1.29 | 1.18 | 1.07 | 1.28 | 0.494 | 0.329 | 1.04 | 1.06
H fixed | 0.962 | 2.06 | 1.45 | 1.11 | 1.18 | 1.17 | 0.56 | 0.991 | 1.18
I fixed | 1.29 | 0.723 | 0.938 | 0.691 | 0.245 | 0.274 | 0.131 | 0.515 | 0.577
K fixed | 0.962 | 1.31 | 1.9 | 1.8 | 1.65 | 3.02 | 1.5 | 2.19 | 2.15
L fixed | 1.14 | 0.987 | 0.872 | 0.682 | 0.746 | 0.772 | 0.165 | 0.645 | 0.557
M fixed | 1.58 | 0.774 | 0.718 | 0.716 | 1.12 | 0.391 | 0.179 | 0.833 | 0.648
N fixed | 1.01 | 1.15 | 0.911 | 1.02 | 1.81 | 0.373 | 0.241 | 0.843 | 0.734
P fixed | 0.407 | 0.746 | 0.842 | 2.68 | 1.14 | 0.283 | 0.406 | 1.06 | 1.2
Q fixed | 0.895 | 0.716 | 0.981 | 0.98 | 1.03 | 0.429 | 0.502 | 1.02 | 0.797
R fixed | 1.09 | 1.82 | 1.86 | 1.54 | 1.63 | 7.37 | 11.4 | 3.08 | 2.97
V fixed | 1.23 | 1.02 | 0.711 | 0.659 | 0.402 | 0.324 | 0.147 | 0.639 | 0.692
W fixed | 0.989 | 0.917 | 1.11 | 0.911 | 0.647 | 0.253 | 0.218 | 0.638 | 0.847
Y fixed | 1.04 | 0.812 | 0.87 | 0.697 | 1.46 | 0.326 | 0.222 | 0.727 | 0.752
pThr fixed | 0.571 | 0.463 | 0.682 | 0.639 | 0.279 | 0.294 | 0.255 | 0.612 | 0.545
pTyr fixed | 0.643 | 0.656 | 0.74 | 0.517 | 0.787 | 0.263 | 0.223 | 0.537 | 0.618

BRAF, construct: aa444-721 (from UniProt P15056)
relative phosphorylation
Conditions | at +1 | at +2 | at +3 | at +4 | at -1 | at -2 | at -3 | at -4 | at -5
A fixed | 0.66 | 0.762 | 0.791 | 0.965 | 1.06 | 1.07 | 1.09 | 0.86 | 1.06
D fixed | 0.675 | 1.38 | 0.941 | 1.09 | 1.92 | 0.748 | 0.994 | 1.52 | 1.48
E fixed | 1.3 | 0.94 | 0.898 | 0.966 | 1.36 | 1 | 1.01 | 1.21 | 1.18
F fixed | 1.44 | 0.67 | 1.06 | 0.762 | 0.539 | 0.983 | 0.935 | 0.684 | 0.7
G fixed | 0.592 | 0.644 | 0.953 | 1.15 | 1.05 | 0.572 | 0.752 | 0.953 | 0.991
H fixed | 0.864 | 1.49 | 0.97 | 1.09 | 1.78 | 1.26 | 0.902 | 0.908 | 1.11
I fixed | 1.95 | 1.09 | 1.1 | 0.733 | 0.422 | 1.64 | 0.712 | 0.488 | 0.701
K fixed | 0.533 | 0.749 | 0.714 | 1.11 | 0.775 | 0.686 | 1.34 | 0.743 | 1.32
L fixed | 1.22 | 0.773 | 1.25 | 0.842 | 0.609 | 1.05 | 1.51 | 0.596 | 0.762
M fixed | 1.26 | 1.23 | 1.22 | 0.826 | 1.23 | 0.931 | 1.27 | 0.629 | 0.897
N fixed | 0.849 | 1.5 | 1.13 | 1.24 | 1.77 | 0.932 | 0.861 | 0.905 | 1.14
P fixed | 0.377 | 0.631 | 0.805 | 1.57 | 0.337 | 0.499 | 0.666 | 0.945 | 1.15
Q fixed | 0.956 | 1.51 | 0.995 | 1 | 1.14 | 0.892 | 0.929 | 0.765 | 0.889
R fixed | 0.673 | 0.848 | 0.902 | 1.08 | 1.17 | 0.839 | 1.46 | 0.629 | 1.06
V fixed | 1.76 | 1.2 | 0.935 | 0.661 | 0.504 | 1.55 | 0.707 | 0.546 | 0.687
W fixed | 0.769 | 0.802 | 1.44 | 1.1 | 0.589 | 1.09 | 1.13 | 3.93 | 1.01
Y fixed | 1.12 | 0.776 | 0.898 | 0.813 | 0.775 | 1.25 | 0.725 | 0.69 | 0.859
pThr fixed | 1.08 | 0.723 | 0.835 | 0.85 | 0.577 | 0.992 | 0.807 | 0.776 | 0.945
pTyr fixed | 0.912 | 0.736 | 0.945 | 0.792 | 1.13 | 1.58 | 0.734 | 0.655 | 1

CAMK4, construct: Full length (from UniProt Q16566)
relative phosphorylation
Conditions | at +1 | at +2 | at +3 | at +4 | at -1 | at -2 | at -3 | at -4 | at -5
A fixed | 0.518 | 0.587 | 0.723 | 0.805 | 0.66 | 0.761 | 0.61 | 0.815 | 0.598
D fixed | 0.574 | 0.588 | 0.925 | 0.978 | 0.92 | 0.327 | 0.27 | 0.479 | 0.347
E fixed | 0.727 | 0.483 | 0.846 | 0.999 | 0.722 | 0.386 | 0.404 | 0.705 | 0.364
F fixed | 3.32 | 0.95 | 1.12 | 1 | 1.02 | 0.667 | 0.559 | 1.01 | 1.75
G fixed | 0.745 | 0.525 | 0.905 | 0.847 | 0.692 | 0.573 | 0.566 | 0.861 | 0.631
H fixed | 0.86 | 1.99 | 1.19 | 1.08 | 1.18 | 1.3 | 1.32 | 1.17 | 0.781
I fixed | 0.95 | 1.24 | 0.874 | 0.837 | 0.711 | 0.484 | 0.449 | 0.865 | 1.22
K fixed | 0.738 | 0.848 | 0.896 | 0.942 | 1.35 | 2.46 | 2.9 | 1.67 | 1.02
L fixed | 0.822 | 1.25 | 1.04 | 1.06 | 1.05 | 0.547 | 0.432 | 1.01 | 1.85
M fixed | 1.23 | 1.15 | 1 | 0.978 | 0.99 | 0.783 | 0.671 | 1.17 | 1.3
N fixed | 0.977 | 1.08 | 1.21 | 1.14 | 1.36 | 1.06 | 0.723 | 0.962 | 0.651
P fixed | 0.167 | 0.652 | 0.919 | 1.24 | 1.09 | 0.38 | 0.706 | 0.642 | 0.827
Q fixed | 1.12 | 0.862 | 0.904 | 1.17 | 1.21 | 1.34 | 0.854 | 0.951 | 0.755
R fixed | 0.929 | 1.24 | 0.977 | 1.04 | 1.27 | 3.93 | 4.59 | 1.73 | 1.48
V fixed | 0.815 | 1.08 | 0.8 | 0.739 | 0.744 | 0.501 | 0.408 | 0.938 | 0.98
W fixed | 1.25 | 1.16 | 1.39 | 1.12 | 0.93 | 0.744 | 0.841 | 0.949 | 1.1
Y fixed | 1.26 | 1.33 | 1.27 | 1.03 | 1.1 | 0.756 | 0.695 | 1.09 | 1.35
pThr fixed | 0.934 | 0.905 | 0.892 | 1.02 | 0.56 | 0.621 | 0.672 | 0.718 | 0.63
pTyr fixed | 0.811 | 0.793 | 0.936 | 0.824 | 1.09 | 0.424 | 0.482 | 0.653 | 0.661
